Reference: article PMC314469, “Protein Interaction Networks by Proteome Peptide Scanning” (PLoS Biology, 2004)

T1: amphyphisin SH3 (AMPH_HUMAN), P49418
T1 chain: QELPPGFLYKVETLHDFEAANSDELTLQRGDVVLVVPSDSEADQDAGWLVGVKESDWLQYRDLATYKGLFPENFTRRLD


molecular target: endophilin SH3 (SH3G2_HUMAN), Q99962; test: SPOT array

Binder | normalised SPOT signal, Boehringer light units (BLU); mean over the file's lines of this peptide
QALYFSRPFREKVL [O75317 40-53] | 226
PVLSPRRPWPSLSW [Q9NUD3 48-61] | 109
QAATPRRPAAISRP [Q96E55 116-129] | 1370
QASRFQRPGRRMSE [Q9BZ71 507-520] | 445
QAGGPQRPGRVVSL [Q13671 45-58] | 556
QEDSPRKPPNFPVP [Q8TEE1 827-841] | 142
QAQLPPKPPAWAWA [P54098 158-172] | 119
QAVHLPRPPRVLGL [Q9H960 30-43] | 178
QFPKLDRPTKQMRE [P78524 721-734] | 133
ASSGLRRPEKPPYS [Q12947 91-104] | 106
QEALPMRPAREGEL [Q9Y6J9 86-99] | 70.9
ASSRPGRPPKRTQS [Q9UI36 281-295] | 5690
QDLRPLRPPAQTPQ [O00456 524-538] | 154
QAGPPSRPPRYSSS [AAH32298 59-73] | 7540
QAVLPPRPPKVLEF [Q9NWT4 356-370] | 1570
ASSSPKRPSVERSN [O75764 109-122] | 190
ASSRPGRPPKRSLG [BAC03761 161-175] | 20200
QDAYLSRPGRALAH [Q9UIW2 291-304] | 219
QGPAPRRPWERGDG [P16066 284-297] | 0
PVLDLRRPPSDLYL [Q9Y618 2172-2185] | 63.7

Results, then the binder that gave them:

normalised SPOT signal, Boehringer light units (BLU); mean over the file's lines of this peptide | Binder
124 | QGASIRRPSSGNAS [Q13267 138-151]
51.3 | QGGRPHRPPQGQPP [Q04118 294-308]
420 | PTVTPRRPGRPDHR [P51511 317-330]
50.1 | PVLDLKRPFLSRES [P47985 41-54]
378 | QSDSIRRPLRPGQY [O75878 30-43]
16000 | PVVPPRRPPPPKKT [Q9P2Q1 393-407]
72.6 | PVAVLKRPSQLSRK [Q9BQI8 153-166]
156 | QELLPGKPPKSRVL [Q8TC00 766-780]
224 | QALYFSRPFRENVL [Q9H9T8 51-64]
2120 | PVVLPWRPARAHSS [Q9Y2H3 1375-1388]
83.1 | QGIEFLRPLKTTTP [P42357 562-575]
62.6 | QAVFPFKPPQRIEA [Q9Y6X3 59-73]
2900 | QDSPPPKPPRTRSS [Q05209 329-343]
6430 | QAAFPRRPPPRGTR [Q9Y5N2 203-217]
1840 | QGSAPLRPFRSGEG [Q9H6J3 73-86]
7340 | QAGFPRRPPPRGTR [Q9UER3 87-101]
101 | PVEAIKRPSPDEPM [Q9H3D6 83-96]
282 | PYPLILRPQRGVDL [P47712 557-570]
204 | PWQRPKRPGHGHGW [Q03252 424-437]
6570 | QGPAPRRPTTDQIS [O43566 535-548]
2220 | QGAGPSRPPTPGRN [O95398 328-342]
218 | PWRGFSRPSRFFSS [Q14968 167-180]

Molecular target: T1, amphyphisin SH3 (AMPH_HUMAN), P49418
Test: SPOT array

Binder | normalised SPOT signal, Boehringer light units (BLU); mean over the file's lines of this peptide
QALYFSRPFREKVL [O75317 40-53] | 1060
PVLSPRRPWPSLSW [Q9NUD3 48-61] | 101
QAATPRRPAAISRP [Q96E55 116-129] | 178
QASRFQRPGRRMSE [Q9BZ71 507-520] | 4120
QAGGPQRPGRVVSL [Q13671 45-58] | 4280
QEDSPRKPPNFPVP [Q8TEE1 827-841] | 97.6
QAQLPPKPPAWAWA [P54098 158-172] | 38.5
QAVHLPRPPRVLGL [Q9H960 30-43] | 1920
QFPKLDRPTKQMRE [P78524 721-734] | 116
ASSGLRRPEKPPYS [Q12947 91-104] | 57.5
QEALPMRPAREGEL [Q9Y6J9 86-99] | 2910
ASSRPGRPPKRTQS [Q9UI36 281-295] | 950
QDLRPLRPPAQTPQ [O00456 524-538] | 266
QAGPPSRPPRYSSS [AAH32298 59-73] | 13600
QAVLPPRPPKVLEF [Q9NWT4 356-370] | 346
ASSSPKRPSVERSN [O75764 109-122] | 12.2
ASSRPGRPPKRSLG [BAC03761 161-175] | 6850
QDAYLSRPGRALAH [Q9UIW2 291-304] | 165
QGPAPRRPWERGDG [P16066 284-297] | 35.7
PVLDLRRPPSDLYL [Q9Y618 2172-2185] | 35.4

Other lines, results leading:

normalised SPOT signal, Boehringer light units (BLU); mean over the file's lines of this peptide | Binder
33.6 | QGASIRRPSSGNAS [Q13267 138-151]
37.1 | QGGRPHRPPQGQPP [Q04118 294-308]
5240 | PTVTPRRPGRPDHR [P51511 317-330]
47 | PVLDLKRPFLSRES [P47985 41-54]
844 | QSDSIRRPLRPGQY [O75878 30-43]
7830 | PVVPPRRPPPPKKT [Q9P2Q1 393-407]
46.3 | PVAVLKRPSQLSRK [Q9BQI8 153-166]
49.9 | QELLPGKPPKSRVL [Q8TC00 766-780]
2250 | QALYFSRPFRENVL [Q9H9T8 51-64]
8510 | PVVLPWRPARAHSS [Q9Y2H3 1375-1388]
31.9 | QGIEFLRPLKTTTP [P42357 562-575]
80.1 | QAVFPFKPPQRIEA [Q9Y6X3 59-73]
20600 | QDSPPPKPPRTRSS [Q05209 329-343]
6180 | QAAFPRRPPPRGTR [Q9Y5N2 203-217]
7120 | QGSAPLRPFRSGEG [Q9H6J3 73-86]
6450 | QAGFPRRPPPRGTR [Q9UER3 87-101]
42.3 | PVEAIKRPSPDEPM [Q9H3D6 83-96]
351 | PYPLILRPQRGVDL [P47712 557-570]
43 | PWQRPKRPGHGHGW [Q03252 424-437]
36.6 | QGPAPRRPTTDQIS [O43566 535-548]
1010 | QGAGPSRPPTPGRN [O95398 328-342]
3040 | PWRGFSRPSRFFSS [Q14968 167-180]
